Reference: patent US20220177604A1

How the values were obtained:
[1] = molecular target: human IgE pre-bound on human basophils (human) (UniProt P01854); assay: cell-based or functional assay
[2] = molecular target: human immunoglobulin E (hIgE) (human) (UniProt P01854); assay: competition ELISA, hIgE to coated hFcεRIα, pH 7.4
[3] = molecular target: human immunoglobulin E (hIgE) (human) (UniProt P01854); assay: SPR competition
[4] = molecular target: human immunoglobulin E (hIgE) (human) (UniProt P01854); assay: SPR competition, hIgE over hFcεRIα chip, pH 5.5
[5] = molecular target: human immunoglobulin E (hIgE) (human) (UniProt P01854); assay: SPR competition, hIgE over hFcεRIα chip, pH 6 (text: pH 5.5)
[6] = molecular target: human immunoglobulin E (hIgE) (human) (UniProt P01854); assay: flow cytometry: inhibition of human IgE binding to hFcεRIα+ bone-marrow-derived mast cells, residual IgE staining (MFI); unit inferred, x axis in µg/ml
[7] = molecular target: human immunoglobulin E (hIgE) (human) (UniProt P01854); assay: SPR competition, hIgE over hFcεRIα chip, pH 7.4
[8] = molecular target: human immunoglobulin E (hIgE) (human) (UniProt P01854); assay: competition ELISA, hIgE to coated hFcεRIα, pH 6
[9] = molecular target: human immunoglobulin E (hIgE) (human) (UniProt P01854); assay: SPR competition, hIgE over hFcεRIα chip, pH 7.4; remark: listed apart in the source
[10] = molecular target: human immunoglobulin E (hIgE) (human) (UniProt P01854); assay: SPR competition, hIgE + mAb over hFcεRIα chip, pH 7.4
[11] = molecular target: human immunoglobulin E (hIgE) (human) (UniProt P01854); assay: flow cytometry: inhibition of human IgE binding to hFcεRIα+ bone-marrow-derived mast cells, residual IgE staining (MFI); table head on the sheet reads EC50, the text calls the values IC50; no unit in the table, x axis in µg/ml
[12] = molecular target: human immunoglobulin E (hIgE) (human) (UniProt P01854); assay: competition ELISA, biotin-hIgE to coated hFcεRIα, pH 7.4
[13] = molecular target: human immunoglobulin E (hIgE) (human) (UniProt P01854); assay: competition ELISA, biotin-hIgE to coated hFcεRIα, pH 6
[14] = molecular target: human immunoglobulin E (hIgE) (human) (UniProt P01854); assay: competition ELISA
[15] = molecular target: human immunoglobulin E (hIgE) (human) (UniProt P01854); assay: SPR competition, hIgE + mAb over hFcεRIα chip, pH 6 (text: pH 5.5)

Sequence of human immunoglobulin E (hIgE) (human) (P01854 whole entry): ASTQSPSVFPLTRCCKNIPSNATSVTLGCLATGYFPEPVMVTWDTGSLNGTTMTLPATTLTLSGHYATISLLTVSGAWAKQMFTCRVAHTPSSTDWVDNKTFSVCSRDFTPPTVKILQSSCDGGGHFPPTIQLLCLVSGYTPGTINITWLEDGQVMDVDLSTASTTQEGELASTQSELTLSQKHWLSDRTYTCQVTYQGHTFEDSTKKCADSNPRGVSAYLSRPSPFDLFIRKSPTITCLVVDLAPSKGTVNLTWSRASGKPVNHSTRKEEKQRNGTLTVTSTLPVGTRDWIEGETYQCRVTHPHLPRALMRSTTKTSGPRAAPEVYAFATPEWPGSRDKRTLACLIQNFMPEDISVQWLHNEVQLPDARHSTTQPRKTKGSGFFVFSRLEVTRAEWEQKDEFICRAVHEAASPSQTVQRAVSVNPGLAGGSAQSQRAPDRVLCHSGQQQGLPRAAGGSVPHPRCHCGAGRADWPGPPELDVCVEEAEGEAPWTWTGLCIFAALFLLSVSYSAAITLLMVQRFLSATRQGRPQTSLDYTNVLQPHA
Sequence of human IgE pre-bound on human basophils (human) (P01854 whole entry, chain 1 of 2): as the sequence (P01854 whole entry) above
Sequence of human IgE pre-bound on human basophils (human) (P12319 26-257, chain 2 of 2, further chain): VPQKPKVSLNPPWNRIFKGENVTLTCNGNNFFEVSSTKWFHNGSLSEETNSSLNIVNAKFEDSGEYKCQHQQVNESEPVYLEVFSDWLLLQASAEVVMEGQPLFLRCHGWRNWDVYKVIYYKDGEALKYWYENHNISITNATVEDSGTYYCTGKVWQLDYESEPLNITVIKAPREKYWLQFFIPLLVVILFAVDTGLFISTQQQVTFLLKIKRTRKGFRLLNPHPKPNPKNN

Binder | % of activated basophils (CCR3+CD63+) [1] | IC50 [2] | ratio between IC50 at pH5.5 and pH 7.4 [3] | IC50 [4] | IC50 [5] | IC50 [6] | IC50 [7] | IC50 [8] | IC50 [9] | IC50 [11] | other results
18B9His-hIgG1-WT (antibody, V domains shown) VH: QVQLVESGGGLVQPGGSLRLSCAASGFTFSSYVMSWVRQAPGKGLEWVSSIYSDGSHTYYADSVKGRFTISRDNAKNTLYLQMNSLKSEDTAVYYCAKNLEHYSGSYYYTDPRYDYWGQGTQVTVSS VL: SSALTQPSALSVTLGQTAKITCQGGSLGSSYVHWYQQKPGQAPVLVIHDGDSRPSGIPERFSGSSSGGTATLTISGAQAEDEDDYYCQSADSSGNAVFGGGTHLTVL | 32% | 0.19 µg/mL | 5.4 | 4.06 µg/mL | 58.5 µg/mL | 3.89 µg/mL | 0.749 µg/mL | 3.02 µg/mL | 2.7 µg/mL | – | % CD63+ basophils at 20 µg/mL [1]: 12.6%; % CD63+ basophils at 100 µg/mL [1]: 37%; SI (Stimulation Index) at 20 µg/mL [1]: 5.48; SI (Stimulation Index) at 100 µg/mL [1]: 16.1
18B9His-hIgG1-ABDEG (antibody, V domains shown) VH: QVQLVESGGGLVQPGGSLRLSCAASGFTFSSYVMSWVRQAPGKGLEWVSSIYSDGSHTYYADSVKGRFTISRDNAKNTLYLQMNSLKSEDTAVYYCAKNLEHYSGSYYYTDPRYDYWGQGTQVTVSS VL: SSALTQPSALSVTLGQTAKITCQGGSLGSSYVHWYQQKPGQAPVLVIHDGDSRPSGIPERFSGSSSGGTATLTISGAQAEDEDDYYCQSADSSGNAVFGGGTHLTVL | 29% | 0.13 µg/mL | – | – | 52.9 µg/mL | 4.16 µg/mL | – | 2.55 µg/mL | 2.9 µg/mL | – | –
13E4-hIgG1-WT (antibody, V domains shown) VH: ELQLVESGGGLVQPGGSLRLSCAASGFTFSSYVMSWVRQAPGKGLEWVSSIYHDGSHTYYADFVKGRFTISRDNAKNTLYLQMNSLKSEDTAVYYCASGTSYSGSYYYTDPFFGSWGQGTQVTVSS VL: HSAVTQPSALSVTLGQTAKITCQGGSLGSNYAYWYQQKPGQAPVLVIYDDDSRPSGIPERFSGSSSGGTATLTISGAQAEDEGDYYCQSADSNGNAVFGGGTHLTVL | 18% | 0.00681 µg/mL | – | – | 2.5 µg/mL | – | – | 0.0114 µg/mL | 2.3 µg/mL | 1.44 µg/mL | IC50 [10]: 1.62 nM; Ratio pH 6/7.4 (IC50) [3]: 1; IC50 [12]: 10.3 nM; IC50 [13]: 12.9 nM; Ratio pH 6/7.4 (IC50) [14]: 1.2; IC50 [15]: 1.54 nM
18E2His2-hIgG1-WT (antibody, V domains shown) VH: QLQLVESGGGLVQPGGSLRLSCAASGFTFSSYVMHWVRQAPGKGLEWVSSIYHDGSHTYYADFVKGRFTISRDNAKNTLYLQMNSLKSEDTAVYYCASGTSYSGSYYYTDPFFGSWGQGTQVTVSS VL: NFMLTQPSALSVTLGQTARITCQGDRLGSRYIHWYQQKPPQAPVLVIHDDDRRPSGIPERFSGSSSGGTATLTISGAQAEDDGDYYCQSADSSGNPVFGGGTHLTVL | 5% | 2.48 µg/mL | 6.3 | 9.86 µg/mL | 6310 µg/mL | – | 1.56 µg/mL | 77.2 µg/mL | 6 µg/mL | 25.7 µg/mL | fold reduction of affinity at pH 7.4 against the WT clone [3]: 2.5 fold
